Data on seven molecules can be found in patent publication US20100261777, “Inhibiton of metallo-beta-lactamase by double-stranded dna” (published 2010).

Series [1] has as its target T1, metallo-beta-lactamase (class B) 5/B/6 (Bacillus cereus) (UniProt P14488).
T1 sequence: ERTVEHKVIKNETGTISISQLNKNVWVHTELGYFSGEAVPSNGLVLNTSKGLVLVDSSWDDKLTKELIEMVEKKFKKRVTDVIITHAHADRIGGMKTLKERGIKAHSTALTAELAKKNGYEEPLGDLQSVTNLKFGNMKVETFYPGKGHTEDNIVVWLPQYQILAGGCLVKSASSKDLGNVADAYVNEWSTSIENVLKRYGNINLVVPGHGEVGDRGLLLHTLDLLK
Nature of the series: inhibition. As to conditions: for IC50: cephalosporin C 4 mM; for IC50 / Ki: MOPS pH 7.0, 30 C; for Ki: noncompetitive.

Series [2] addresses T2, metallo-beta-lactamase (class B) 5/B/6 (Bacillus cereus, UniProt P14488 P14488:30-256).
T2 sequence: T1 sequence
Nature of the series: inhibition; single strand control. To be noted: tags: strain 5/B/6; desalted enzyme used for SELEX.

The next series deals with T3, carboxypeptidase A (Bos taurus, UniProt P00730 P00730:111-419).
T3 sequence: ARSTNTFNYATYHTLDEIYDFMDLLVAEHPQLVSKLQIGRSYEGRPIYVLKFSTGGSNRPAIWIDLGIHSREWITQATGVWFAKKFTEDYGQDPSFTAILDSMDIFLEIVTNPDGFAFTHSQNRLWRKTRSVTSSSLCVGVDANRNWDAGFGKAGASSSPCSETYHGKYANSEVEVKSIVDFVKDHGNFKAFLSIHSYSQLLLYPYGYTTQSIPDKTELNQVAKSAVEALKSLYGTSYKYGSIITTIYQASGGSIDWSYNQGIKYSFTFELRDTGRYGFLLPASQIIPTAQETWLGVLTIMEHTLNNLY
In words: inhibition; 10% LiCl, 30 C, hippuryl-L-phenylalanine 1 mM. To be noted: tags: bovine, zinc-dependent. The method, then:
Bovine Carboxypeptidase A Assay. The assay used for the bovine carboxypeptidase A is based on the method developed by Folk and Schirmer (1963). The rate of hydrolysis of hippuryl-L-phenylalanine is determined by monitoring the increase in absorbance at 254 nm (25° C., pH=7.5). The enzyme was dissolved in 10% lithium chloride to a concentration of 1-3 units per mL. Hippuryl-L-phenylalanine (1 mM) was dissolved in 0.05 M Tris HCl, pH=7.5 with 0.5 M sodium chloride. In a 1 cm cuvette, 1.0 mL of substrate was added and incubated in the spectraphotometer at 25° C. for 3-4 minutes to reach temperature equilibrium and establish a blank rate. Fifty μL of diluted enzyme was preincubated for 15 minutes at 25° C. with or without the inhibitor and was then added to record the increase in absorbance at 254 nm.
At 25 times the IC₅₀ value (275 nM) for the metallo-β-lactamase no inhibition of the against B. cereus 569/H/9 β-lactamase I was detected (data not shown) Additionally a bovine carboxypeptidase A (Zn²⁺dependent enzyme) assay was performed to test for Zn²⁺ specificity. […] The enzyme was incubated in the buffer (10% LiC1) for 15 minutes at 30° C. The concentration of the substrate (Hippuryl-L-phenylalanine) is 1 mM.

“ATGATCCGGTGCTGT (double strand) [ds 15-mer]” yielded an IC50 in series [1] of 21 nM. Moreover, the Ki in series [1] (KI' 76.5 nM) is 103 nM.
“ATGATCCGGTGCTGTATGTTCCTACATGA (double strand) [ds 29-mer]” showed an IC50 in series [1] (no added Zn2+) of 14 nM. The same molecule returned a Ki in series [1] (KI' 9.1 nM, no added Zn2+) of 11 nM.
For the molecule “ATGTTCCTACATGA (double strand) [ds 14-mer]”, the IC50 in series [1] was 11 nM. This molecule showed a Ki in series [1] (KI' 13 nM) of 13 nM.
In series [1] (preliminary, pool after round 8, DNA quantitation approximate), “CGCGAGCTCCGCGCGNNNNNNNNNNNNNNNNNNNNNNNNNNNNNNCGCGCGCATATGGCGC (double strand) [round 8 SELEX pool (30 nt random insert)]” showed an activity of 25 % inhibition.

B1: ss 15-mer top strand (ssDNA)
DNA: ATGATCCGGTGCTGT
As to B1, the IC50 in series [2] stood at 150 nM.

B2: ss 15-mer complementary strand (ssDNA)
DNA: ACAGCACCGGATCAT
Consider B2, for which the IC50 in series [2] is 750 nM.

B3: ds 14-mer (dsDNA)
DNA 1: ATGTTCCTACATGA
DNA 2: TCATGTAGGAACAT
On to B3, for which, in the series with carboxypeptidase A, it took 100 nM to reach half-maximal inhibition (IC50).

As usually defined, the IC50 is the concentration at which inhibition is half-maximal. Usually Ki stands for the dissociation constant of the complex between target and ligand, obtained from inhibition or displacement. Read a high Ki as weaker binding.
